Measured values reported in publication PMC1904291.
Where a chain is given by its changes, count along the chain named.

Tests used:
Test in all cases: EMSA
[1] = molecular target: T1, I-CreI K139M (UniProt P05725 1-163, K139M)
T1 sequence: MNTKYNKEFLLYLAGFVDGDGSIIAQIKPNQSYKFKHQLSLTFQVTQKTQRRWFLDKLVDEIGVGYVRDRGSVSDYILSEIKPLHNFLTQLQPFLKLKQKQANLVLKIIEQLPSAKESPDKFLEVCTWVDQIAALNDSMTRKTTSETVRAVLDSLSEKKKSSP

[2] = molecular target: T2, I-CreI S138A (UniProt P05725 1-163, S138A)
T2 sequence: T1 sequence with S138A, M139K

[3] = molecular target: T3, I-CreI GG (UniProt P05725 1-163, K142G;T143G)
T3 sequence: T1 sequence with M139K, K142G, T143G

[4] = molecular target: T4, I-CreI AM (UniProt P05725 1-163, S138A;K139M)
T4 sequence: T1 sequence with S138A

[5] = molecular target: T5, I-CreI (UniProt P05725 1-163)
T5 sequence: T1 sequence with M139K

[6] = molecular target: T6, I-CreI Δ1 (UniProt P05725 1-137)
T6 sequence: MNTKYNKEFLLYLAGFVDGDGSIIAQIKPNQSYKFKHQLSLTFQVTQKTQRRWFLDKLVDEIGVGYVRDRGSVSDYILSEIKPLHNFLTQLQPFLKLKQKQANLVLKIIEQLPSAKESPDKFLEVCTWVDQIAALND

B1: 6-FAM I-CreI target duplex (dsDNA)
DNA 1: GCAAAACGTCGTGAGACAGTTTGC
DNA 2: GCAAACTGTCTCACGACGTTTTGC
For B1, which Kd [1] is on record?
Its Kd is 110 nM.

What about the Kd [2] of the same binder?
Its Kd is 250 nM.

And the Kd [3]?
The Kd was 50 nM.

And the Kd [4]?
The Kd was 1240 nM.

And the Kd [5]?
Its Kd is 0.2 nM.

Does B1 bind [6]?
Result: no binding
